Measurements published in IntAct's records for PubMed 16938849.

B1: Mitogen-activated protein kinase kinase kinase kinase 4 (Mus musculus), P97820 (parent)
chain: MANDSPAKSLVDIDLSSLRDPAGIFELVEVVGNGTYGQVYKGRHVKTVTAAIKVMDVTEDEEEEITLEINMLKKYSHHRNIATYYGAFIKKSPPGHDDQLWLVMEFCGAGSITDLVKNTKGNTLKEDWIAYISREILRGLAHLHIHHVIHRDIKGQNVLLTENAEVKLVDFGVSAQLDRTVGRRNTFIGTPYWMAPEVIACDENPDATYDYRSDLWSCGITAIEMAEGGPPLCDMHPMRALFLIPRNPPPRLKSKKWSKKFFSFIEGCLVKNYMQRPSTEQLLKHPFIRDQPNERQVRIQLKDHIDRTRKKRGEKDETEYEYSGSEEEEEEVPEQEGEPSSIVNVPGESTLRRDFLRLQQENKERSEALRRQQLLQEQQLREQEEYKRQLLAERQKRIEQQKEQRRRLEEQQRREREARRQQEREQRRREQEEKRRLEELERRRKEEEERRRAEEEKRRVEREQEYIRRQLEEEQRHLEILQQQLLQEQAMLLHDHRRPHAQQQPPPPQQQDRSKPSFHAPEPKPHYDPADRAREVQWSHLASLKNNVSPVSRSHSFSDPSPKFAHHHLRSQDPCPPSRSEGLSQSSDSKSEVPEPTQKAWSRSDSDEVPPRVPVRTTSRSPVLSRRDSPLQGGGQQNSQAGQRNSTSSIEPRLLWERVEKLVPRPGSGSSSGSSNSGSQPGSHPGSQSGSGERFRVRSSSKSEGSPSPRQESAAKKPDDKKEVFRSLKPAGEVDLTALAKELRAVEDVRPPHKVTDYSSSSEESGTTDEEEEDVEQEGADDSTSGPEDTRAASSPNLSNGETESVKTMIVHDDVESEPAMTPSKEGTLIVRQTQSASSTLQKHKSSSSFTPFIDPRLLQISPSSGTTVTSVVGFSCDGLRPEAIRQDPTRKGSVVNVNPTNTRPQSDTPEIRKYKKRFNSEILCAALWGVNLLVGTESGLMLLDRSGQGKVYPLISRRRFQQMDVLEGLNVLVTISGKKDKLRVYYLSWLRNKILHNDPEVEKKQGWTTVGDLEGCVHYKVVKYERIKFLVIALKSSVEVYAWAPKPYHKFMAFKSFGELLHKPLLVDLTVEEGQRLKVIYGSCAGFHAVDVDSGSVYDIYLPTHIQCSIKPHAIIILPNTDGMELLVCYEDEGVYVNTYGRITKDVVLQWGEMPTSVAYIRSNQTMGWGEKAIEIRSVETGHLDGVFMHKRAQRLKFLCGRNDKVFFSSVRSGGSSQVYFMTLGRTSLLSW

Variants of: B1
Settings: with Ezr

Variant	effect of a mutation on the interaction
D152N	increasing interaction strength
